From US20220144916A1 (University of Texas, published 2022)

Key:
[1] = target: T1, human FcγRIIIA, FLAG-tagged (human, UniProt P08637 17-208); experiment: flow cytometry, yeast display of human IgG1 Fc, FcgR3A labeled with PE
T1 construct: also called FcgRIIIa; FcγIIIA

[2] = target: T2, HCMV viral Fcγ receptor gp34 (residues 24-182), soluble, strep and FLAG tags (human cytomegalovirus AD169, UniProt P16809 24-182); experiment: flow cytometry, yeast display of human IgG1 Fc, Gp34 plus anti-FLAG PE
T2 construct: range 24-182
T2 sequence: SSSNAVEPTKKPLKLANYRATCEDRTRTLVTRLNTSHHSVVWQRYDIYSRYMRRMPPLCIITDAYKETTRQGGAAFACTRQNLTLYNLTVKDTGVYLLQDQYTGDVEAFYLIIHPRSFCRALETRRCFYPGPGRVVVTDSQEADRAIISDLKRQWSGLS

human FcRn, FLAG-tagged = human FcRn, FLAG-tagged (human, UniProt P55899 24-297; P61769 21-119); experiment: flow cytometry, yeast display of human IgG1 Fc, FcRn at low pH, PE detection
human FcRn, FLAG-tagged, sequence (P55899 24-297 limits assumed, chain 1 of 2): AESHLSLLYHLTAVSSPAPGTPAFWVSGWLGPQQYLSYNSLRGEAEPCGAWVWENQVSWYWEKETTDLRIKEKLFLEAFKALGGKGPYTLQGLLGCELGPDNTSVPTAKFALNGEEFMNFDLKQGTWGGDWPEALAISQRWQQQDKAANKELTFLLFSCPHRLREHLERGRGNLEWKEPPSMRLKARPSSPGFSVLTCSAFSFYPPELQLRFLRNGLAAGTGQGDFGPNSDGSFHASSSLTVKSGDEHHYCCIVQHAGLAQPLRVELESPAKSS
human FcRn, FLAG-tagged, sequence (P61769 21-119 limits assumed, chain 2 of 2): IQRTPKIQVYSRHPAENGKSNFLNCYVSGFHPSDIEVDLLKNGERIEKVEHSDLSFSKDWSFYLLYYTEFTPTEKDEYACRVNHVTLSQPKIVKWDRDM

T1 sequence (P08637 17-208 limits assumed): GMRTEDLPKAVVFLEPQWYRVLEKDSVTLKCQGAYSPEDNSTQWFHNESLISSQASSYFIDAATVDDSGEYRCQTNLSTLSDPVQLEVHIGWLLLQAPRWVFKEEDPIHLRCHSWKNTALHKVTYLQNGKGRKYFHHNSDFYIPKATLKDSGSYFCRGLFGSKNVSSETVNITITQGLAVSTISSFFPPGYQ

Binder	number printed in the receptor-PE gate (share of yeast cells; unit not given) [1]	binding result [2]	number printed in the receptor-PE gate (share of yeast cells; unit not given) (human FcRn, FLAG-tagged)
3S-12 (other, member of group m65; also called gp34 escape variant 3S-12 of human IgG1 Fc, S337F, E345K, T350I) human IgG1 Fc displayed on yeast as an Aga-2 fusion protein: CDKTHTCPPCPAPELLGGPSVFLFPPKPKDTLMISRTPEVTCVVVDVSHEDPEVKFNWYVDGVEVHNAKTKPREEQYNSTYRVVSVLTVLHQDWLNGKEYKCKVSNKALPAPIEKTIFKAKGQPRKPQVYILPPSRDELTKNQVSLTCLVKGFYPSDIAVEWESNGQPENNYKTTPPVLDSDGSFFLYSKLTVDKSRWQQGNVFSCSVMHEALHNHYTQKSLSLSPGK	39.9	no binding	–
4-7 (other, also called gp34 escape variant 4-7 of human IgG1 Fc, H268L, E294K, Q311L, K334E) human IgG1 Fc displayed on yeast as an Aga-2 fusion protein: CDKTHTCPPCPAPELLGGPSVFLFPPKPKDTLMISRTPEVTCVVVDVSLEDPEVKFNWYVDGVEVHNAKTKPREKQYNSTYRVVSVLTVLHLDWLNGKEYKCKVSNKALPAPIEETISKAKGQPREPQVYTLPPSRDELTKNQVSLTCLVKGFYPSDIAVEWESNGQPENNYKTTPPVLDSDGSFFLYSKLTVDKSRWQQGNVFSCSVMHEALHNHYTQKSLSLSPGK	54.2	no binding	34.3
3S-13 (other, member of group m65; also called gp34 escape variant 3S-13 of human IgG1 Fc, K334E, K338I) human IgG1 Fc displayed on yeast as an Aga-2 fusion protein: CDKTHTCPPCPAPELLGGPSVFLFPPKPKDTLMISRTPEVTCVVVDVSHEDPEVKFNWYVDGVEVHNAKTKPREEQYNSTYRVVSVLTVLHQDWLNGKEYKCKVSNKALPAPIEETISIAKGQPREPQVYTLPP	43.4	no binding	–
